Measured values taken from patent publication CN107840891A.

Tests used:
[1] = target: MSLN抗原 (Mesothelin, MSLN-Biotin) (human) (UniProt Q13421); assay: BLI (Octet RED96), MSLN-Biotin on AR2G sensor, TG1 periplasmic scFv as analyte
[2] = target: MSLN抗原 (Mesothelin, MSLN-Biotin) (human) (UniProt Q13421); assay: BLI (Octet RED96), MSLN-Biotin on AR2G sensor, TG1 periplasmic scFv as analyte (表2.4)
[3] = target: MSLN抗原 (Mesothelin, MSLN-Biotin) (human) (UniProt Q13421); assay: BLI (Octet RED96), MSLN-Biotin on AR2G sensor, TG1 periplasmic scFv as analyte (表2.2)
[4] = target: MSLN抗原 (Mesothelin, MSLN-Biotin) (human) (UniProt Q13421); assay: BLI (Octet RED96), MSLN-Biotin on AR2G sensor, TG1 periplasmic scFv as analyte (表2.1)

Chain of UniProt Q13421 (Q13421 296-606 limits assumed): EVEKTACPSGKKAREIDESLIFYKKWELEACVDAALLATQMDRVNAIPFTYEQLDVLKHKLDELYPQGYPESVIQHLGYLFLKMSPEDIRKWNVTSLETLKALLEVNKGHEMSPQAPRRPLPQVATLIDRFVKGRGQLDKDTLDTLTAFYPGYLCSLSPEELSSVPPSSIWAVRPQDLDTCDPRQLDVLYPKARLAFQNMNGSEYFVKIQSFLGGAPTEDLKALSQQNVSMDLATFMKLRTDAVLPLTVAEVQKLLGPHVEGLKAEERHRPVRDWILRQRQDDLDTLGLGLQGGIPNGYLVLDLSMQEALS

Binder | koff [1] | 响应 [1] | further results
2G8 (scFv, V domains shown) VH: QVQLQQPGAELVKPGASMKLSCKASGTQFANYRMHWVKQRPGQGLEWIGMIHPNSDNTIYYEKFKSKATLTVDKSSSTAYMQLSSLTSEDSAVYYCAIIITPVVPKFDYWGQGTTLTVSS VL: DIVMTQSHQFMSTSVGDRVSVTCKASHDVGTSVAWYQQKPGQSPKLLIYWASTRHTGVPDRFTGSGSGTDFTLTISNVQSEDLADYFCQQYSSYPLTFGAGTKLELK | 0.00111 s⁻¹ | 1.11 | –
2D9 (scFv, V domains shown) VH: QVQLQQPGAELVKPGASMKLSCKASGYTFTSYWMHWVKQRPGQGLEWIGMIHAQSDNTIYYEKFKSKATLTVDKSSSTAYMQLSSLTSEDSAVYYCAIIITPVVPKFDYWGQGTTLTVSS VL: DIVMTQSHQFMSTSVGDRVSVTCKASHDVGTSVAWYQQKPGQSPKLLIYWASTRHTGVPDRFTGSGSGTDFTLTISNVQSEDLADYFCQQYSSYPLTFGAGTKLELK | 0.000217 s⁻¹ | 1.25 | –
4D7 (scFv, V domains shown) VH: QVQLQQPGAELVKPGASMKLSCKASGYTFTSYWMHWVKQRPGQGLEWIGMIHPNSDNTIYYEKFKSKATLTVDKSSSTAYMQLSSLTSEDSAVYYCAITISPVVPKFDYWGQGTTLTVSS VL: DIVMTQSHQFMSTSVGDRVSVTCKASHDVGTSVAWYQQKPGQSPKLLIYWASTRHTGVPDRFTGSGSGTDFTLTISNVQSEDLADYFCQQYSSYPLTFGAGTKLELK | 0.000321 s⁻¹ | 0.96 | –
MN单链抗体 (scFv MN, wild type) (scFv, V domains shown) VH: QVQLQQPGAELVKPGASMKLSCKASGYTFTSYWMHWVKQRPGQGLEWIGMIHPNSDNTIYYEKFKSKATLTVDKSSSTAYMQLSSLTSEDSAVYYCAIIITPVVPKFDYWGQGTTLTVSS VL: DIVMTQSHQFMSTSVGDRVSVTCKASHDVGTSVAWYQQKPGQSPKLLIYWASTRHTGVPDRFTGSGSGTDFTLTISNVQSEDLADYFCQQYSSYPLTFGAGTKLELK | – | – | koff [2]: 0.000188 s⁻¹; 响应 [2]: 0.37; koff [3]: 0.000221 s⁻¹; 响应 [3]: 0.38; koff [4]: 0.000164 s⁻¹; 响应 [4]: 0.37
4C11 (scFv, V domains shown) VH: QVQLQQPGAELVKPGASMKLSCKASGYTFTSYWMHWVKQRPGQGLEWIGMIHLNSAQTIYYEKFKSKATLTVDKSSSTAYMQLSSLTSEDSAVYYCAIIITPVVPKFDYWGQGTTLTVSS VL: DIVMTQSHQFMSTSVGDRVSVTCKASHDVGTSVAWYQQKPGQSPKLLIYWASTRHTGVPDRFTGSGSGTDFTLTISNVQSEDLADYFCQQYSSYPLTFGAGTKLELK | 0.000133 s⁻¹ | 1.16 | –
3E12 (scFv, V domains shown) VH: QVQLQQPGAELVKPGASMKLSCKASGYTFTSYWMHWVKQRPGQGLEWIGMINLVSSRTIYYEKFKSKATLTVDKSSSTAYMQLSSLTSEDSAVYYCAIIITPVVPKFDYWGQGTTLTVSS VL: DIVMTQSHQFMSTSVGDRVSVTCKASHDVGTSVAWYQQKPGQSPKLLIYWASTRHTGVPDRFTGSGSGTDFTLTISNVQSEDLADYFCQQYSSYPLTFGAGTKLELK | 9.73e-05 s⁻¹ | 1.04 | –
4A12 (scFv, V domains shown) VH: QVQLQQPGAELVKPGASMKLSCKASGYTFTSYWMHWVKQRPGQGLEWIGMIHPNSDNTIYYEKFKSKATLTVDKSSSTAYMQLSSLTSEDSAVYYCAIVILPFLPKFDYWGQGTTLTVSS VL: DIVMTQSHQFMSTSVGDRVSVTCKASHDVGTSVAWYQQKPGQSPKLLIYWASTRHTGVPDRFTGSGSGTDFTLTISNVQSEDLADYFCQQYSSYPLTFGAGTKLELK | 0.0001 s⁻¹ | 0.91 | –
7E10 (scFv, V domains shown) VH: QVQLQQPGAELVKPGASMKLSCKASGYTFTSYWMHWVKQRPGQGLEWIGMIHPNSDNTIYYEKFKSKATLTVDKSSSTAYMQLSSLTSEDSAVYYCAIIITPVVPKFDYWGQGTTLTVSS VL: DIVMTQSHQFMSTSVGDRVSVTCKASHDVGTSVAWYQQKPGQSPKLLIYNASSRGGGVPDRFTGSGSGTDFTLTISNVQSEDLADYFCQQYSSYPLTFGAGTKLELK | 0.000401 s⁻¹ | 1.02 | –
5F7 (scFv, V domains shown) VH: QVQLQQPGAELVKPGASMKLSCKASGYTFTSYWMHWVKQRPGQGLEWIGMIHPNSDNTIYYEKFKSKATLTVDKSSSTAYMQLSSLTSEDSAVYYCAIIITPVVPKFDYWGQGTTLTVSS VL: DIVMTQSHQFMSTSVGDRVSVTCKASHDVGTSVAWYQQKPGQSPKLLIYWASTRHTGVPDRFTGSGSGTDFTLTISNVQSEDLADYFCQQYASYPLSFGAGTKLELK | 0.000613 s⁻¹ | 0.73 | –
3F9 (scFv, V domains shown) VH: QVQLQQPGAELVKPGASMKLSCKASGYTFTSYWMHWVKQRPGQGLEWIGMIHPNSQNTIYYEKFKSKATLTVDKSSSTAYMQLSSLTSEDSAVYYCAIIITPVVPKFDYWGQGTTLTVSS VL: DIVMTQSHQFMSTSVGDRVSVTCKASHDVGTSVAWYQQKPGQSPKLLIYWASTRHTGVPDRFTGSGSGTDFTLTISNVQSEDLADYFCQQYSSYPLTFGAGTKLELK | 0.000164 s⁻¹ | 1.38 | –
7D5 (scFv, V domains shown) VH: QVQLQQPGAELVKPGASMKLSCKASGYTFTSYWMHWVKQRPGQGLEWIGMIHPNSDNTIYYEKFKSKATLTVDKSSSTAYMQLSSLTSEDSAVYYCAIIITPVVPKFDYWGQGTTLTVSS VL: DIVMTQSHQFMSTSVGDRVSVTCKASHDVGTSVAWYQQKPGQSPKLLIYKASNNKKGVPDRFTGSGSGTDFTLTISNVQSEDLADYFCQQYSSYPLTFGAGTKLELK | 0.000395 s⁻¹ | 0.94 | –
2F9 (scFv, V domains shown) VH: QVQLQQPGAELVKPGASMKLSCKASGYTFTSYWMHWVKQRPGQGLEWIGGIEQNSSETIYYEKFKSKATLTVDKSSSTAYMQLSSLTSEDSAVYYCAIIITPVVPKFDYWGQGTTLTVSS VL: DIVMTQSHQFMSTSVGDRVSVTCKASHDVGTSVAWYQQKPGQSPKLLIYWASTRHTGVPDRFTGSGSGTDFTLTISNVQSEDLADYFCQQYSSYPLTFGAGTKLELK | 0.00166 s⁻¹ | 0.13 | –
9F5 (scFv, V domains shown) VH: QVQLQQPGAELVKPGASMKLSCKASGYTFTSYWMHWVKQRPGQGLEWIGMIHPNSDNTIYYEKFKSKATLTVDKSSSTAYMQLSSLTSEDSAVYYCAIIITPVVPKFDYWGQGTTLTVSS VL: DIVMTQSHQFMSTSVGDRVSVTCKASHDVGTSVAWYQQKPGQSPKLLIYQASKKEKGVPDRFTGSGSGTDFTLTISNVQSEDLADYFCQQYSSYPLTFGAGTKLELK | 0.000294 s⁻¹ | 0.97 | –
8C9 (scFv, V domains shown) VH: QVQLQQPGAELVKPGASMKLSCKASGYTFTSYWMHWVKQRPGQGLEWIGMIHPNSDNTIYYEKFKSKATLTVDKSSSTAYMQLSSLTSEDSAVYYCAIIITPVVPKFDYWGQGTTLTVSS VL: DIVMTQSHQFMSTSVGDRVSVTCMASHDVGTSVAWYQQKPGQSPKLLIYWASTRHTGVPDRFTGSGSGTDFTLTISNVQSEDLADYFCQQYSSYPLTFGAGTKLELK | 0.000356 s⁻¹ | 0.93 | –
